Experimental data taken from patent US20140011738A1 (INDIANA UNIVERSITY RESEARCH AND TECHNOLOGY, published 2014).
*1 amine or outer side, *2 acyl side, *3 side chain or, on linkers, in order; H or OH if unused. Where no end group is shown, it is not given here. Side-chain parts run from the residue outwards. [ ]: non-standard residue; d: D form. The star is where a group is joined. γGlu = O=C(O)[C@H](CCC(=O)[*:2])N[*:1]; Palmitoyl = CCCCCCCCCCCCCCCC(=O)*; Aib = CC(C)(N)C(=O)O

T1: GIP receptor (UniProt P48546 22-466, limits assumed)
T1 sequence (looked up): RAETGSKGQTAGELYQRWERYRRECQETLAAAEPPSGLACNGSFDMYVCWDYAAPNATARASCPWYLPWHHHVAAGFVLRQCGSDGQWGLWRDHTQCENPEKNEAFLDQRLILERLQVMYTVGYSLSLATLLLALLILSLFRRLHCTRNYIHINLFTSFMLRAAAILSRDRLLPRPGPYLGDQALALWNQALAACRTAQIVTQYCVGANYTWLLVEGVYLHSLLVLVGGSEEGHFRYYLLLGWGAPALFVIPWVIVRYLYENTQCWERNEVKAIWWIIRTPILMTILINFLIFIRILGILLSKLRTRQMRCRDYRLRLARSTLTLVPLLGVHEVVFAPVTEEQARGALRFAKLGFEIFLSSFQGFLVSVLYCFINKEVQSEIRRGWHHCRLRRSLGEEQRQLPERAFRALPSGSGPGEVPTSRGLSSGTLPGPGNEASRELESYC

B1: peptide of SEQ ID NO: 18 (peptide)
peptide: H[Aib]QGTFTSDK([γGlu-Palmitoyl])SKYLEERAAQEFVQWLLEGGPSSGAPPPS-NH2
modifications: N-terminus assumed
SMILES: CCCCCCCCCCCCCCCC(=O)N[C@@H](CCC(=O)NCCCC[C@H](NC(=O)[C@H](CC(=O)O)NC(=O)[C@H](CO)NC(=O)[C@@H](NC(=O)[C@H](Cc1ccccc1)NC(=O)[C@@H](NC(=O)CNC(=O)[C@H](CCC(N)=O)NC(=O)C(C)(C)NC(=O)[C@@H](N)Cc1c[nH]cn1)[C@@H](C)O)[C@@H](C)O)C(=O)N[C@@H](CO)C(=O)N[C@@H](CCCCN)C(=O)N[C@@H](Cc1ccc(O)cc1)C(=O)N[C@@H](CC(C)C)C(=O)N[C@@H](CCC(=O)O)C(=O)N[C@@H](CCC(=O)O)C(=O)N[C@@H](CCCNC(=N)N)C(=O)N[C@@H](C)C(=O)N[C@@H](C)C(=O)N[C@@H](CCC(N)=O)C(=O)N[C@@H](CCC(=O)O)C(=O)N[C@@H](Cc1ccccc1)C(=O)N[C@H](C(=O)N[C@@H](CCC(N)=O)C(=O)N[C@@H](Cc1c[nH]c2ccccc12)C(=O)N[C@@H](CC(C)C)C(=O)N[C@@H](CC(C)C)C(=O)N[C@@H](CCC(=O)O)C(=O)NCC(=O)NCC(=O)N1CCC[C@H]1C(=O)N[C@@H](CO)C(=O)N[C@@H](CO)C(=O)NCC(=O)N[C@@H](C)C(=O)N1CCC[C@H]1C(=O)N1CCC[C@H]1C(=O)N1CCC[C@H]1C(=O)N[C@@H](CO)C(N)=O)C(C)C)C(=O)O
B2: peptide of SEQ ID NO: 44 (peptide)
peptide: H[Aib]EGTFTSDK([γGlu-Palmitoyl])SKYLDERAAQDFVQWLLEGGPSSGAPPPS-NH2
modifications: N-terminus assumed
SMILES: CCCCCCCCCCCCCCCC(=O)N[C@@H](CCC(=O)NCCCC[C@H](NC(=O)[C@H](CC(=O)O)NC(=O)[C@H](CO)NC(=O)[C@@H](NC(=O)[C@H](Cc1ccccc1)NC(=O)[C@@H](NC(=O)CNC(=O)[C@H](CCC(=O)O)NC(=O)C(C)(C)NC(=O)[C@@H](N)Cc1c[nH]cn1)[C@@H](C)O)[C@@H](C)O)C(=O)N[C@@H](CO)C(=O)N[C@@H](CCCCN)C(=O)N[C@@H](Cc1ccc(O)cc1)C(=O)N[C@@H](CC(C)C)C(=O)N[C@@H](CC(=O)O)C(=O)N[C@@H](CCC(=O)O)C(=O)N[C@@H](CCCNC(=N)N)C(=O)N[C@@H](C)C(=O)N[C@@H](C)C(=O)N[C@@H](CCC(N)=O)C(=O)N[C@@H](CC(=O)O)C(=O)N[C@@H](Cc1ccccc1)C(=O)N[C@H](C(=O)N[C@@H](CCC(N)=O)C(=O)N[C@@H](Cc1c[nH]c2ccccc12)C(=O)N[C@@H](CC(C)C)C(=O)N[C@@H](CC(C)C)C(=O)N[C@@H](CCC(=O)O)C(=O)NCC(=O)NCC(=O)N1CCC[C@H]1C(=O)N[C@@H](CO)C(=O)N[C@@H](CO)C(=O)NCC(=O)N[C@@H](C)C(=O)N1CCC[C@H]1C(=O)N1CCC[C@H]1C(=O)N1CCC[C@H]1C(=O)N[C@@H](CO)C(N)=O)C(C)C)C(=O)O
B3: peptide of SEQ ID NO: 43 (peptide)
peptide: H[Aib]QGTFTSDK([γGlu-Palmitoyl])SKYLDERAAQDFVQWLLEGGPSSGAPPPS-NH2
modifications: N-terminus assumed
SMILES: CCCCCCCCCCCCCCCC(=O)N[C@@H](CCC(=O)NCCCC[C@H](NC(=O)[C@H](CC(=O)O)NC(=O)[C@H](CO)NC(=O)[C@@H](NC(=O)[C@H](Cc1ccccc1)NC(=O)[C@@H](NC(=O)CNC(=O)[C@H](CCC(N)=O)NC(=O)C(C)(C)NC(=O)[C@@H](N)Cc1c[nH]cn1)[C@@H](C)O)[C@@H](C)O)C(=O)N[C@@H](CO)C(=O)N[C@@H](CCCCN)C(=O)N[C@@H](Cc1ccc(O)cc1)C(=O)N[C@@H](CC(C)C)C(=O)N[C@@H](CC(=O)O)C(=O)N[C@@H](CCC(=O)O)C(=O)N[C@@H](CCCNC(=N)N)C(=O)N[C@@H](C)C(=O)N[C@@H](C)C(=O)N[C@@H](CCC(N)=O)C(=O)N[C@@H](CC(=O)O)C(=O)N[C@@H](Cc1ccccc1)C(=O)N[C@H](C(=O)N[C@@H](CCC(N)=O)C(=O)N[C@@H](Cc1c[nH]c2ccccc12)C(=O)N[C@@H](CC(C)C)C(=O)N[C@@H](CC(C)C)C(=O)N[C@@H](CCC(=O)O)C(=O)NCC(=O)NCC(=O)N1CCC[C@H]1C(=O)N[C@@H](CO)C(=O)N[C@@H](CO)C(=O)NCC(=O)N[C@@H](C)C(=O)N1CCC[C@H]1C(=O)N1CCC[C@H]1C(=O)N1CCC[C@H]1C(=O)N[C@@H](CO)C(N)=O)C(C)C)C(=O)O

Biological target: glucagon receptor (UniProt P47871 26-477, limits assumed)
Sequence (P47871 26-477 limits assumed): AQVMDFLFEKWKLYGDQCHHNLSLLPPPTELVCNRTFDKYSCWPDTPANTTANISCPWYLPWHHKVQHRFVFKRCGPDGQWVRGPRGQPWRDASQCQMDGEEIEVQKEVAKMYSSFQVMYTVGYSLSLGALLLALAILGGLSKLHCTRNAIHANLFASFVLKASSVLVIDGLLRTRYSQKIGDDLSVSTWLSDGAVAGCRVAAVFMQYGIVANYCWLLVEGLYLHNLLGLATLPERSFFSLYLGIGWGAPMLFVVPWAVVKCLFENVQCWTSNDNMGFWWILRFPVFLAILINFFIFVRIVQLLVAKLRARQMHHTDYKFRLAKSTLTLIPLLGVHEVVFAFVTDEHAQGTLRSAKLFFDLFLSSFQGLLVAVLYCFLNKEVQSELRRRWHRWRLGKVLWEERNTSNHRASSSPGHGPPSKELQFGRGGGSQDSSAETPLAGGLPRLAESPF
Assay: cell-based or functional assay

Row | Binder | EC50 at Glucagon Receptor [pM]
1 | H[Aib]QGTFTSDYSKYLDERAAQDFVQWLLDGGPSSGAPPPSK([γGlu-γGlu-Palmitoyl])G-NH2 [peptide of SEQ ID NO: 11] | 4
2 | B1 | 7
3 | H[Aib]QGTFTSDYAKYLDERAAQDFVQWLLDGGPSSGAPPPSK([γGlu-γGlu-Palmitoyl])G-NH2 [peptide of SEQ ID NO: 17] | 19
4 | H[Aib]QGTFTSDK([γGlu-Palmitoyl])SKYLDERAAQDFVQWLLDGGPSSGAPPPS-NH2 [peptide of SEQ ID NO: 10] | 4
5 | B2 | 1470
6 | H[Aib]QGTFTSEYSKYLDERAAQDFVQWLLDGGPSSGAPPPSK([γGlu-γGlu-Palmitoyl])G-NH2 [peptide of SEQ ID NO: 16] | 28
7 | B3 | 6
8 | H[Aib]QGTFTSDYSKYLEERAAQDFVQWLLDGGPSSGAPPPSK([γGlu-γGlu-Palmitoyl])G-NH2 [peptide of SEQ ID NO: 15] | 5

Biological target: GLP-1 receptor (UniProt P43220 24-463, limits assumed)
Sequence (P43220 24-463 limits assumed): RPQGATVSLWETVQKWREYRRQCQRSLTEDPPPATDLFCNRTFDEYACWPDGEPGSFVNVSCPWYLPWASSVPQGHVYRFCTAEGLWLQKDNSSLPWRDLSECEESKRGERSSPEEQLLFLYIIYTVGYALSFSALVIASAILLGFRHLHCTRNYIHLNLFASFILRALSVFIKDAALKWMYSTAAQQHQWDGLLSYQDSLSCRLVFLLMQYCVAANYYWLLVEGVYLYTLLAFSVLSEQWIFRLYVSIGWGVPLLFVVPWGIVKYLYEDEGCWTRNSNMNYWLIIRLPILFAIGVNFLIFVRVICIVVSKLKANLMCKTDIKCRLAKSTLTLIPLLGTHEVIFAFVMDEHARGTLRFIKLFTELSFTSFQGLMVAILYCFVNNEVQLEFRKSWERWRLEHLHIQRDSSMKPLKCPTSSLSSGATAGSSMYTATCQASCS
Assay: cell-based or functional assay

Row | Binder | EC50 at GLP-1 Receptor [pM]
9 | H[Aib]QGTFTSDYSKYLDERAAQDFVQWLLDGGPSSGAPPPSK([γGlu-γGlu-Palmitoyl])G-NH2 [peptide of SEQ ID NO: 11] | 1
10 | B1 | 8
11 | H[Aib]QGTFTSDYAKYLDERAAQDFVQWLLDGGPSSGAPPPSK([γGlu-γGlu-Palmitoyl])G-NH2 [peptide of SEQ ID NO: 17] | 8
12 | H[Aib]QGTFTSDK([γGlu-Palmitoyl])SKYLDERAAQDFVQWLLDGGPSSGAPPPS-NH2 [peptide of SEQ ID NO: 10] | 4
13 | B2 | 7
14 | H[Aib]QGTFTSEYSKYLDERAAQDFVQWLLDGGPSSGAPPPSK([γGlu-γGlu-Palmitoyl])G-NH2 [peptide of SEQ ID NO: 16] | 2
15 | B3 | 4
16 | H[Aib]QGTFTSDYSKYLEERAAQDFVQWLLDGGPSSGAPPPSK([γGlu-γGlu-Palmitoyl])G-NH2 [peptide of SEQ ID NO: 15] | 3

Biological target: T1, GIP receptor
Assay: cell-based or functional assay

Row | Binder | EC50 at GIP Receptor [pM]
17 | H[Aib]QGTFTSDYSKYLDERAAQDFVQWLLDGGPSSGAPPPSK([γGlu-γGlu-Palmitoyl])G-NH2 [peptide of SEQ ID NO: 11] | 24
18 | B1 | 7
19 | H[Aib]QGTFTSDYAKYLDERAAQDFVQWLLDGGPSSGAPPPSK([γGlu-γGlu-Palmitoyl])G-NH2 [peptide of SEQ ID NO: 17] | 20
20 | H[Aib]QGTFTSDK([γGlu-Palmitoyl])SKYLDERAAQDFVQWLLDGGPSSGAPPPS-NH2 [peptide of SEQ ID NO: 10] | 4
21 | B2 | 27
22 | H[Aib]QGTFTSEYSKYLDERAAQDFVQWLLDGGPSSGAPPPSK([γGlu-γGlu-Palmitoyl])G-NH2 [peptide of SEQ ID NO: 16] | 54
23 | B3 | 5
24 | H[Aib]QGTFTSDYSKYLEERAAQDFVQWLLDGGPSSGAPPPSK([γGlu-γGlu-Palmitoyl])G-NH2 [peptide of SEQ ID NO: 15] | 8
